Results on one substance are retold here after PMC6351178.

In the assay the target is PitA (E. coli (endogenous in MG1655)) (UniProt P0AFJ7). Kind of assay: cross-linking.
Chain of UniProt P0AFJ7 (P0AFJ7 whole entry): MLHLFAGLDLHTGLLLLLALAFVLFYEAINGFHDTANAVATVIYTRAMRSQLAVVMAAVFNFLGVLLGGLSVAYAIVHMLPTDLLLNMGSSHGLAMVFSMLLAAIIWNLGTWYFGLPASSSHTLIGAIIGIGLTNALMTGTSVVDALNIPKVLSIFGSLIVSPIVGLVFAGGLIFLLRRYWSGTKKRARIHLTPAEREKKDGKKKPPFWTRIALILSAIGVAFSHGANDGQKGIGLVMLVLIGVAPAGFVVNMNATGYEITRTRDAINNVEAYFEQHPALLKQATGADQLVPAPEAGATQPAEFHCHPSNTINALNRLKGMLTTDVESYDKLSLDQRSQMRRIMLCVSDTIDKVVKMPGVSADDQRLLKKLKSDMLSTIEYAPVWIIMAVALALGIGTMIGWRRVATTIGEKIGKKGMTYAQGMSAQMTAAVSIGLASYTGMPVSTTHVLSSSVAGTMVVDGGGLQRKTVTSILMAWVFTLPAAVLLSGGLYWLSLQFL

For the substance “MgtS-SPA (from UniProt A5A616 1-31) (natural protein)”, the stoichiometry N (MgtS-SPA per PitA) is 1.
